# Assay results as given in the RNAGym collection of RNA variant scans (doi:10.7554/elife.80360).
# B1: Hairpin Ribozyme (parent)
# chain: GUCCUCUUUCACGUGCGCGUGAAAGAGAGAAGUGAACCAGAGAAACACACGUUGUGGUAUAUUACCUGGUA
# Variants of: B1
# Assay: self-cleavage, relative activity (ratio to wild type); higher = more cleavage; co-transcriptional
row,Variant,self-cleavage
1,GUCCUCUUUCACGUGCGCGUGAAAGAGAGAACUGAACCAGAGAAACACACGUUGUGGUAUAUUACCGGGUA [G32C U67G],0.148
2,GUCCUCUUUCACGUGCGCGUGAAAGAGAGACGUGAACCAGAGAAACACACCUUGUGGUAUAUUACCUGGUA [A31C G51C],0.182
3,GUCCUCUUUCACGUGCGCGUGAAAGUGAGAAGUGAACCAGAGAAACACACGUUGUGAUAUAUUACCUGGUA [A26U G57A],0.184
4,GUCCUCUUUCACGUGCGCGUGAAAGAGGGAAGUGAACCAGAGAAACACACGUUGUGGUAUAUUACCUGGAA [A28G U70A],1.05
5,GUCCUAUUUCACGUGCGCGUGAAAGAGAGAAGUGACCCAGAGAAACACACGUUGUGGUAUAUUACCUGGUA [C6A A36C],0.393
6,GUCCUCUGUCACGUGCGCGUGAAAGAGAGAAGUGCACCAGAGAAACACACGUUGUGGUAUAUUACCUGGUA [U8G A35C],0.715
7,GUCCUCUUUCACGUGCGCGUGAAAGAGAGAGGUGAACCAGAGAAACACACGUUGUGGUUUAUUACCUGGUA [A31G A59U],0.184
8,GUCCUCUUUCACGUGCGCGUGAAUGGGAGAAGUGAACCAGAGAAACACACGUUGUGGUAUAUUACCUGGUA [A24U A26G],0.79
9,GUCCUCUUUCACGUGCGCGUGAAAGGGCGAAGUGAACCAGAGAAACACACGUUGUGGUAUAUUACCUGGUA [A26G A28C],0.358
10,GUCCUCUUUCACGUGCCCGUGAAAGAGAGAAAUGAACCAGAGAAACACACGUUGUGGUAUAUUACCUGGUA [G17C G32A],0.131
11,GUCCUCUUUCACGAGUGCGUGAAAGAGAGAAGUGAACCAGAGAAACACACGUUGUGGUAUAUUACCUGGUA [U14A C16U],0.813
12,GUCCUCUUUCACGUGCGCGUGAAAGAGAGAGGUGAACCAGAGAAACACACGUUAUGGUAUAUUACCUGGUA [A31G G54A],0.378
13,GUCCUCUUUCACGUGCGCGUGAAAGAGGGAAGUGAUCCAGAGAAACACACGUUGUGGUAUAUUACCUGGUA [A28G A36U],0.7
14,GUCCUCUUUCACGUGCGCGUGAAAGAGAGAAGUGAACCAGAGAAACACACGUGGUGGUAUAUUACCUGGCA [U53G U70C],0.783
15,GUCCUCUUUCACGUGCGCGUGAAAGAGAGAAGUGAAAGAGAGAAACACACGUUGUGGUAUAUUACCUGGUA [C37A C38G],0.31
16,GUCCUCUUUCACGUGCGCGUGAAAGAGAGAAGUGAACCAGAGAUACACACGUUGUGGUAUAUUACCUGGUA [A44U],0.141
17,GACCUCUUUCACGUGCGCGUGAAAGAGAGAAGUGAACCAGAGAAACACACGUUGUGGUAUAUAACCUGGUA [U2A U63A],0.0695
18,GUCCUCUUUCACGUGCGCGUGAAAGAGAGAAGUGAACCAGAGAAACACACGUUGUGGUAUAUGACCUUGUA [U63G G68U],0.225
19,GUCCUCAUUCACGUGCGCGUGAAAGAGAGAAGUGAACCAGAGAAACACACGUUGUGGUAUAUUACAUGGUA [U7A C66A],0.269

row,Variant,self-cleavage
1,GUCCUCUUUCACGUGCGCGUGAAGGAGAGAAGUGAACCAGACAAACACACGUUGUGGUAUAUUACCUGGUA [A24G G42C],0.275
2,GUGCUCUUUCACGUGCGCGUGAAAGAGAGAAGUGAACCAGAGAAACCCACGUUGUGGUAUAUUACCUGGUA [C3G A47C],0.0701
3,GUCCUCUUUCACGUGCGCGUGAAAGAGAGAAGUGAACCAGAGAAACGCACGUUGUGGAAUAUUACCUGGUA [A47G U58A],0.221
4,GUCCUCUUUCACGUGCGCGUGUAAGAGAGAAGUGAACCAGAGAAACACACGUUGUGGUAUAUUAUCUGGUA [A22U C65U],0.229
5,GUCCUCUUUCACGUGCGCGUGAAAGAGAGAAGUGAACCAGAGAAACACCCGUUGUGGUAUGUUACCUGGUA [A49C A61G],0.172
6,GUCCUCUUUCACGGGCGCGUGAAAGAGAGAAGUGAACCAGAGAAACACACGUUGUGGUAUAAUACCUGGUA [U14G U62A],0.209
7,GUCCUCUUUCAUGUGCGCGUGAAAGAGAGAAGUGAACCAGCGAAACACACGUUGUGGUAUAUUACCUGGUA [C12U A41C],0.886
8,GUCCUCUUUCUCGUGCGCGUGAAAGAGAGAAGUGAACCAGAGAAACACACGUUGUGGUAUAUUACCUAGUA [A11U G68A],0.316
9,GUCCUCCUUCACGUGCGCGUGAAAGAGAGAAGUGAACCAGAGAUACACACGUUGUGGUAUAUUACCUGGUA [U7C A44U],0.106
10,GUCCUCUUUCACGUGCGCGUGAAAGAGAGAAGUGAACCAGAGAAACACACGUUGUGGUAUAUAACCUGGUU [U63A A71U],0.182
11,GUCCUCUUUGACGUGCGCGUGAAAGAGAGAAGUGAACCAGAGAAACACACGUUGUGGUAUAUUCCCUGGUA [C10G A64C],0.169
12,GUCCUCUUUCACGUGCGCGUGAAAGAGAGAAGUGAACCAGAGAAACACACGUUUUCGUAUAUUACCUGGUA [G54U G56C],0.24
13,GUCCUCUUUCACGUGCGCGUGAAAAAGAGAAGUGAACCAGAGAAACACACGUAGUGGUAUAUUACCUGGUA [G25A U53A],0.472
14,GUCCUCUUUCACGUGCGCGUGAAAGAGAGAAGUUUACCAGAGAAACACACGUUGUGGUAUAUUACCUGGUA [G34U A35U],1.44
15,GUCCUCUUUCACGUGCGCGUGAAAGAGAGAAGUGACCCAGAGAAACACACGUUGUGGUAUAAUACCUGGUA [A36C U62A],0.0722
16,GUCCUCUUUCACGUGCGCGUGAAAGAGAGAAGUGAACCAAAGAAACACACAUUGUGGUAUAUUACCUGGUA [G40A G51A],0.578
17,GUCCUCUUUAACGUGUGCGUGAAAGAGAGAAGUGAACCAGAGAAACACACGUUGUGGUAUAUUACCUGGUA [C10A C16U],0.762
18,GUCCUCUUUCACGUGCGCGUGAAAGAGAGAAGUGAACCAGAGAAACACACGUUGUGGUAUAUGACCUGGUG [U63G A71G],0.226
19,GUCCUCUUUCACGUGCGCGUGAAAGUGAGAAGUGAACCCGAGAAACACACGUUGUGGUAUAUUACCUGGUA [A26U A39C],0.225
